Measured values from US20250297287A1.
pKd: −log10 of the molar value.

Columns and labels:
[1] = biological target: albumin (Sigma A9731) (human) (UniProt P02768); assay: SPR (CM5 chip), albumin immobilised, FcRn in solution, pH 5.8, 25 C
human IgG3 (human) [2] = biological target: human IgG3 (human) (UniProt P01860); assay: SPR (CM5 chip), IgG immobilised, FcRn in solution, pH 5.8, 25 C
human IgG4 (human) [3] = assay: as above
[4] = biological target: albumin (Sigma A9731) (human) (UniProt P02768); assay: SPR (C1 chip), FcRn-biotin on surface, albumin injected, pH 5.8, 25 C
human IgG1 (human) = assay: SPR (C1 chip), FcRn-biotin on surface, IgG injected, pH 5.8; estimated from limited surface saturation
human IgG2 (human) = assay: as above
human IgG3 (human) [5] = biological target: human IgG3 (human) (UniProt P01860); assay: as above
human IgG4 (human) [6] = assay: as above

Chain of human IgG3 (human) (P01860 other isoform, or with tags, fused parts or gaps): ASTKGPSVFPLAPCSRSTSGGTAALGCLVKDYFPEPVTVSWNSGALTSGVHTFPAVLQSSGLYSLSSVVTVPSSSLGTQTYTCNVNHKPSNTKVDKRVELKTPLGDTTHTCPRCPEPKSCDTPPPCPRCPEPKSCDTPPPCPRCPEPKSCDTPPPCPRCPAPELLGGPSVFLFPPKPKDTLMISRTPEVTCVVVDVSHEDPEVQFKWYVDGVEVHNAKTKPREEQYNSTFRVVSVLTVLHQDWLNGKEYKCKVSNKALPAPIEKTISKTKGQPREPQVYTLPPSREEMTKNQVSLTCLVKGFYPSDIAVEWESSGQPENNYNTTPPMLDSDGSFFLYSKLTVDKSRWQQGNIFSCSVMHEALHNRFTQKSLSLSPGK
Chain of human IgG2 (human) (Fc, as listed by the source limits assumed): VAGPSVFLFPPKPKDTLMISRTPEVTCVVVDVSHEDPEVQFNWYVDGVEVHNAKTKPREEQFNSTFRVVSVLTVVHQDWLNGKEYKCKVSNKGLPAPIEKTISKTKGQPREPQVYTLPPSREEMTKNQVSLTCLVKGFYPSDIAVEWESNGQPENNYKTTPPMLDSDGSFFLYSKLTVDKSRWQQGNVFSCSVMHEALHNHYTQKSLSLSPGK

| Substance | pKd [1] | pKd (human IgG3 (human) [2]) | pKd (human IgG4 (human) [3]) | pKd [4] | pKd (human IgG1 (human)) | pKd (human IgG2 (human)) | pKd (human IgG3 (human) [5]) | pKd (human IgG4 (human) [6]) |
| --- | --- | --- | --- | --- | --- | --- | --- | --- |
| FcRn E133K (extracellular domain with beta2 microglobulin) (from UniProt P61769 21-119) (receptor) | 6.02 |  |  |  |  |  |  |  |
| FcRn M118I (extracellular domain with beta2 microglobulin) (from UniProt P61769 21-119) (receptor) | 6.32 | 6.68 | 6.62 | 5.72 | 5.28 | 5.18 | 5.38 | 4.90 |
| FcRn W131R (extracellular domain with beta2 microglobulin) (from UniProt P61769 21-119) (receptor) | 6.36 |  |  | 5.77 |  |  |  |  |
